From patent US20140349310A1 (Eli Lilly, published 2014)

B1: anti-c-Met therapeutic antibody C8-H241 (human IgG4 subtype) (antibody, V domains shown)
VH: QVQLVQSGAEVKKPGASVKVSCKASGYTFTDYYMHWVRQAPGQGLEWMGRVNPNRRGTTYNQKFEGRVTMTTDTSTSTAYMELRSLRSDDTAVYYCARANWLDYWGQGTTVTVSS
VL: DIQMTQSPSSLSASVGDRVTITCSVSSSVSSIYLHWYQQKPGKAPKLLIYSTSNLASGVPSRFSGSGSGTDFTLTISSLQPEDFATYYCQVYSGYPLTFGGGTKVEIKR
notes: also called mAb C8-H241

Assays:
[1] = biological target: T1, human c-Met ECD expressed as Fc fusion protein with a flag- and His-tag (Flis-tag) at the C-terminus of the Fc (human); assay: SPR (Biacore): antibody captured by goat anti-mouse Fc, c-Met ECD-Fc-Flis as analyte, 25 C, 1:1 Langmuir model
T1 construct: also called human c-Met-ECD-Fc-Flis; c-Met-ECD-Fc-Flis
Experimental: (§1) Briefly described, the anti-c-Met monoclonal antibody of the invention may be dissolved in HBS-EP buffer (150 mM sodium chloride, 3 mM EDTA, 0.005% (w/v) surfactant P-20, and 10 mM N-2-hydroxyethylpiperazine-N′-2-ethanesulfonic acid (HEPES) at pH 7.4; #BR-1001-88). Goat anti-mouse Fc antibody is immobilized on flow cells 1 to 4 of a CM5 sensor chip at a level of 4000 response units (RUs) using amine coupling chemistry to capture anti-c-Met antibodies.
(§2) Binding may be evaluated using multiple analytical cycles. Each cycle is performed at a flow rate of 50 μl/minute, and may consist of the following steps: injection of about 10 μl of an anti-c-Met monoclonal antibody at 10 μg/ml aiming at a capture of 40-100 RUs, injection of 250 μl of human or cynomolgus monkey c-Met-Flis-Fc ECD (starting at 100 nM and using two-fold serial dilutions for each cycle) followed by 20 minutes for dissociation, and regeneration using about 30 μl of 10 mM glycine hydrochloride, pH 1.5. Association and dissociation rates for each cycle may be evaluated using a “1:1 (Langmuir) binding” model in the BIAevaluation software 4.1.

[2] = biological target: T2, cynomolgus monkey c-Met ECD expressed as Fc fusion protein with a flag- and His-tag (Flis-tag) at the … (cynomolgus monkey); assay: as above
T2 construct: also called cynomolgus monkey c-Met-Flis-Fc ECD
Experimental: as §1, §2

[3] = biological target: B1; assay: ELISA control: 2 µg/mL C8-H241 (human IgG4 subtype) coated, no cMet ECD, 0.5 µg/mL biotinylated OptD11 detection
[4] = biological target: T1, human c-Met ECD expressed as Fc fusion …; assay: SPR (BIAcore): antibody injected over c-Met-ECD-Fc-Flis captured at 130 Ru; the sequential experiment also includes C8-H241
[5] = biological target: T1, human c-Met ECD expressed as Fc fusion …; assay: SPR (BIAcore): antibody injected over c-Met-ECD-Fc-Flis captured at 130 Ru

T2 sequence (chain, as listed by the source limits assumed): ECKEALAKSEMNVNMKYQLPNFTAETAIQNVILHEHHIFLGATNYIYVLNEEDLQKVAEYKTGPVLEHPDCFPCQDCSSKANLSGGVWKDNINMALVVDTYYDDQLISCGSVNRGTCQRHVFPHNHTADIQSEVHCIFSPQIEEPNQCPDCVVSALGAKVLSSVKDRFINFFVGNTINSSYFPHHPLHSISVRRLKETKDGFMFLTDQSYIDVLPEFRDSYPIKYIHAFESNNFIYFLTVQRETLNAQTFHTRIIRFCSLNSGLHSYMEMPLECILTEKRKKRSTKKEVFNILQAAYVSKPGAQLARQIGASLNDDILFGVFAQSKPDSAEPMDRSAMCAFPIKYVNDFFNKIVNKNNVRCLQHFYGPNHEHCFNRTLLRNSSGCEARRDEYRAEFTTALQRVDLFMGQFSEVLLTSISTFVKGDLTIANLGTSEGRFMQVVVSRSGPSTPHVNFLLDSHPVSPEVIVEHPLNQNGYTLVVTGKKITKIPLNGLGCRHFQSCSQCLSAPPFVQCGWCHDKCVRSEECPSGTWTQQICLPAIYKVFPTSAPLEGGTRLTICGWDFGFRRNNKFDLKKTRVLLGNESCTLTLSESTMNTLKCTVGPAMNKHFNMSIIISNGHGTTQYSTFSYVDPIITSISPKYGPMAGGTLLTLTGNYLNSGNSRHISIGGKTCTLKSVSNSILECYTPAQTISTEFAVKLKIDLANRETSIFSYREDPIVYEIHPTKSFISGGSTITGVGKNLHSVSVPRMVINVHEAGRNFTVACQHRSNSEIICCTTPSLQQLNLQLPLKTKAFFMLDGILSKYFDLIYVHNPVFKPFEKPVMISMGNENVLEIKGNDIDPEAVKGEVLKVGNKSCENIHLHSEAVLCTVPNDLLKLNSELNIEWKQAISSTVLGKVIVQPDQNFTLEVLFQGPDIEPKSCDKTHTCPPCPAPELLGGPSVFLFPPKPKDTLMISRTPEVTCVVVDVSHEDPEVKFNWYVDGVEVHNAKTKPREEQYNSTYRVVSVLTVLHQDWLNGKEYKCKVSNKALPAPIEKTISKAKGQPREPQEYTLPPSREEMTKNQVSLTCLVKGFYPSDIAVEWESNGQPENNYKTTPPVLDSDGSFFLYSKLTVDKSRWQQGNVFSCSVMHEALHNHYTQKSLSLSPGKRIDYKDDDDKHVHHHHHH
T1 sequence (chain, as listed by the source): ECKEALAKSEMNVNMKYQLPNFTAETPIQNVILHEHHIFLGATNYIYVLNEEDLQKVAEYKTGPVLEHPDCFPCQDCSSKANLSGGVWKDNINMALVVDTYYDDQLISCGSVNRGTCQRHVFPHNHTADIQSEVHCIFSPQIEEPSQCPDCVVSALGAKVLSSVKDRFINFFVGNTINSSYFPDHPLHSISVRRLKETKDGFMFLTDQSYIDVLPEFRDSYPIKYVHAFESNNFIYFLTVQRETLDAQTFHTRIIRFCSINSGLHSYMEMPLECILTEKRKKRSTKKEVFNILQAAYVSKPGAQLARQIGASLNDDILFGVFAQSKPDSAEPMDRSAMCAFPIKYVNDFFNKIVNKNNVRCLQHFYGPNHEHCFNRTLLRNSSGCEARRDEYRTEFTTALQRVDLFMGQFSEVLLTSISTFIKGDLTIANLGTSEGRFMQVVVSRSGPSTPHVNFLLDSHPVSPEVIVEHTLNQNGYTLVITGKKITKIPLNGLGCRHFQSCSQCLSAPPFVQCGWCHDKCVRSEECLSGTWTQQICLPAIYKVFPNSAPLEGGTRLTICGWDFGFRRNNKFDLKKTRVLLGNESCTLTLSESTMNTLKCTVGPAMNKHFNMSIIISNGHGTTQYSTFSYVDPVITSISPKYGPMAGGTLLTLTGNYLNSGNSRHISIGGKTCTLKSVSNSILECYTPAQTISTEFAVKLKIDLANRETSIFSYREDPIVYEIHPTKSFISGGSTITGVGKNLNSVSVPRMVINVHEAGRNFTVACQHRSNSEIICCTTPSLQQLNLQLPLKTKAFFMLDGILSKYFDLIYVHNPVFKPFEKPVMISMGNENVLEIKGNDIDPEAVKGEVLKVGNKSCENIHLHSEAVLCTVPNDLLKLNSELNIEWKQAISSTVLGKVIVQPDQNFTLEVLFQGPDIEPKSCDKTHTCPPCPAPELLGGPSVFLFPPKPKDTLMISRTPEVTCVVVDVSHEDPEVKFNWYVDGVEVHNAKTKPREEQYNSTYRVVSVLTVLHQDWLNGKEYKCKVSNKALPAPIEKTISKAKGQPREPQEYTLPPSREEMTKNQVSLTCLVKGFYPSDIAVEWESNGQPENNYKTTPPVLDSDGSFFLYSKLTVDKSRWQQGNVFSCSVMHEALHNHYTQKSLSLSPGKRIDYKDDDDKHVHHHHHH

Row | Kd [1] [pM] | koff [1] [s⁻¹] | kon [1] [M⁻¹ s⁻¹] | Kd [2] [pM] | koff [2] [s⁻¹] | kon [2] [M⁻¹ s⁻¹] | binding result [3] | Stoichiometry (mAb to cMet-Fc) [4] | Stoichiometry (mAb to cMet-Fc) [5] | Binder
1 | 120 | 9e-06 | 160000 | 350 | 4.7e-05 | 130000 | no binding (tested: 0.5 µg/mL) | 0.89 |  | anti-c-Met monoclonal antibody OptD11 (mouse IgG1 subtype) (antibody, V domains shown, Murine IgG1; also called mAb OptD11; OptD11 c-Met antibody) VH: EVQLQQSGPELVKPGASVRISCKASGYTFTSRYIHWMKQRPGQGLEWIGWIYPVTGDTYYNEKFKGKATLTSDKSSSTAYMQISSLTSDDSAVYFCARGGGMFYYWGQGTLVTVSA VL: ETTVTQSPALMAASPGEKVTITCSVSSSISSTNLHWYQQKSETSPKPWIYGTSNLASGVPVRFGGSGSGTSYSLTISSMEAEDAATYYCQQWSSYPYTFGGGTKLEIKR
2 |  |  |  |  |  |  |  |  | 0.91 | B1
